{
  "source": "paper PMC3992019",
  "about": "“Initiation of the flexirubin biosynthesis in Chitinophaga pinensis” (Microbial Biotechnology, 2014)",
  "key": {"purified protein": {"substrate": "O=C(O)/C=C/c1ccccc1", "test": "purified protein", "conditions": "1 mM CoA, 1 mM ATP, 1 mM MgCl2, 50 mM Tris pH 7.5, 55°C, 0.5 μM enzyme, 50-7000 μM substrate"}, "[1]": {"substrate": "O=C(O)/C=C/c1ccc(O)cc1", "test": "coupled pyrophosphate assay (EnzChek)", "assay_type": "biochemical, Chitinophaga pinensis", "conditions": "1 mM CoA, 1 mM ATP, 1 mM MgCl2, 50 mM Tris pH 7.5, 55°C, 0.5 μM enzyme, 10-750 μM substrate"}},
  "data": [
    {"protein": "FlxY (Chitinophaga pinensis DSM 2588) (protein, His6-tagged full-length (pCOLADuet-1, BamHI/HindIII), expressed in E. coli BL21 (DE3), HisTrap purified, tag kept; expected size 49 kDa) MYIPDIELQSTAAIRKYQETEVLRLLGYLRQFSPFYREWFAQHGIQPSTVKSLNDLWLIPPVTKEHLQQQNWDFLCVDKSRIAEYTTTSGTLGNPVIIALTQKDQERLSYNEYISFCCAGGTENDIYQLMLTLDRQFMAGMAYYNGIRKLGAGVLRVGPGVPSLQWENISRIQPTTIVAVPSFIVKLIAFAKEHNIDINASSVKSAVCIGENIRNVDFSLNVLGKKITEQWDIKLYSTYASTEMQTAFTECNAGQGGHHHPELLYIELLDDNNQPVGPNQDGEVTITTLGVEGMPLLRYKTGDICRYFQEPCSCGRHTMRLSPVIGRRKQMIKYKGTTLYPPALFDLLNDMEEVKEFVVEVFSNEIGTDEILLHLWPVAETEDIDRKIRSYLQAKLRVIPQVRYCSQADVMKMQFPEGSRKPIKFIDRR", "values": [
      {"measurement": "Km", "setting": "purified protein", "value": 868, "unit": "µM"},
      {"measurement": "Km", "setting": "[1]", "value": 17, "unit": "µM"}
    ]}
  ]
}
